Measurements taken from the supplement of paper PMC9112550, “Optimization of the antimicrobial peptide Bac7 by deep mutational scanning” (BMC Biology, 2022).

Tested on: Escherichia coli TOP10
Assay: shrunken log2 fold change of peptide-encoding DNA abundance (4.5 h post-induction vs induction); higher = less antimicrobial activity (less host growth inhibition)
Conditions: time post-induction: 4.5 h; library: site-saturation at positions 5, 18, 19, 20
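Also: peptides expressed intracellularly from a pBAD plasmid library in pooled LB shake-flask culture, induced with 0.3% L-arabinose, DNA abundance read by NGS, three biological replicates, DESeq2 with apeglm shrinkage.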

Sequence	shrunken log2 fold change
RRIRIRPPRLPRPRPRPTSRPRP	-0.0459
RRIRQRPPRLPRPRPRPIIPPRP	-0.904
RRIRDRPPRLPRPRPRPCLKPRP	-0.000218
RRIRARPPRLPRPRPRPAKLPRP	0.196
RRIRERPPRLPRPRPRPQAFPRP	-0.017
RRIRKRPPRLPRPRPRPHVLPRP	0.0607
RRIRVRPPRLPRPRPRPLPWPRP	0.196
RRIRQRPPRLPRPRPRPICWPRP	0.0153
RRIRDRPPRLPRPRPRPTEEPRP	0.355
RRIRMRPPRLPRPRPRPDSTPRP	1.09
RRIRFRPPRLPRPRPRPFSQPRP	-0.452
RRIRKRPPRLPRPRPRPYRTPRP	-0.224
RRIRCRPPRLPRPRPRPEKTPRP	-0.0706
RRIRMRPPRLPRPRPRPLTDPRP	1.69
RRIRDRPPRLPRPRPRPQNGPRP	-0.0018
RRIRMRPPRLPRPRPRPIIDPRP	-0.399
RRIRHRPPRLPRPRPRPGHDPRP	0.0104
RRIRMRPPRLPRPRPRPVAKPRP	1.43
RRIRKRPPRLPRPRPRPFMDPRP	0.0834
RRIRERPPRLPRPRPRPKYQPRP	-0.601
RRIRTRPPRLPRPRPRPECLPRP	0.105
RRIRMRPPRLPRPRPRPEAKPRP	2.72
RRIRFRPPRLPRPRPRPGYKPRP	-0.438
RRIRIRPPRLPRPRPRPGRKPRP	0.0417
RRIRRRPPRLPRPRPRPHKHPRP	-0.165

Sequence	shrunken log2 fold change
RRIRARPPRLPRPRPRPVVAPRP	0.604
RRIRWRPPRLPRPRPRPHENPRP	0.0568
RRIRMRPPRLPRPRPRPQKFPRP	-0.000921
RRIRGRPPRLPRPRPRPTQDPRP	1.34
RRIRCRPPRLPRPRPRPDCWPRP	0.23
RRIRDRPPRLPRPRPRPYVVPRP	-0.159
RRIRNRPPRLPRPRPRPRMCPRP	0.138
RRIRIRPPRLPRPRPRPHRCPRP	-0.0635
RRIRQRPPRLPRPRPRPHFFPRP	-0.0162
RRIRSRPPRLPRPRPRPLAFPRP	-0.0837
RRIRIRPPRLPRPRPRPSFDPRP	-0.442
RRIRDRPPRLPRPRPRPNSGPRP	-0.269
RRIRDRPPRLPRPRPRPCTEPRP	0.373
RRIRSRPPRLPRPRPRPVYRPRP	-0.398
RRIRMRPPRLPRPRPRPWHTPRP	0.0985
RRIRRRPPRLPRPRPRPLIDPRP	0.192
RRIRTRPPRLPRPRPRPSGEPRP	2.88
RRIRDRPPRLPRPRPRPQANPRP	0.231
RRIRCRPPRLPRPRPRPEVGPRP	0.555
RRIRARPPRLPRPRPRPRPHPRP	0.513
RRIRGRPPRLPRPRPRPFKTPRP	-0.341
RRIRYRPPRLPRPRPRPFVAPRP	-0.696
RRIRRRPPRLPRPRPRPWHYPRP	-0.0356
RRIRVRPPRLPRPRPRPAQAPRP	0.74
RRIRKRPPRLPRPRPRPVPDPRP	0.418

Sequence	shrunken log2 fold change
RRIRGRPPRLPRPRPRPFEWPRP	-0.127
RRIRVRPPRLPRPRPRPQALPRP	-0.000718
RRIRDRPPRLPRPRPRPVFDPRP	0.291
RRIRQRPPRLPRPRPRPYHDPRP	0.015
RRIRIRPPRLPRPRPRPFNIPRP	-0.93
RRIRIRPPRLPRPRPRPAVGPRP	0.455
RRIRVRPPRLPRPRPRPMIYPRP	-0.38
RRIRNRPPRLPRPRPRPHVIPRP	-0.205
RRIRARPPRLPRPRPRPLVQPRP	0.561
RRIRPRPPRLPRPRPRPGNRPRP	-0.0146
RRIRVRPPRLPRPRPRPYCQPRP	-1.64
RRIRERPPRLPRPRPRPRRLPRP	0.138
RRIRTRPPRLPRPRPRPTMEPRP	-0.489
RRIRERPPRLPRPRPRPFSPPRP	-0.745
RRIRIRPPRLPRPRPRPPHIPRP	-0.542
RRIRSRPPRLPRPRPRPSRMPRP	-0.205
RRIRSRPPRLPRPRPRPTPIPRP	0.0944
RRIRTRPPRLPRPRPRPWFDPRP	-0.247
RRIRKRPPRLPRPRPRPISHPRP	0.17
RRIRFRPPRLPRPRPRPNLAPRP	-0.0885
RRIRERPPRLPRPRPRPLAPPRP	0.101
RRIRMRPPRLPRPRPRPPHAPRP	1.65
RRIRRRPPRLPRPRPRPPALPRP	0.635
RRIRWRPPRLPRPRPRPQLFPRP	0.0645
RRIRDRPPRLPRPRPRPELHPRP	0.319

Sequence	shrunken log2 fold change
RRIRNRPPRLPRPRPRPNWTPRP	-0.0743
RRIRFRPPRLPRPRPRPFHYPRP	0.0611
RRIRMRPPRLPRPRPRPVMFPRP	0.199
RRIRWRPPRLPRPRPRPVVIPRP	-0.101
RRIRTRPPRLPRPRPRPGWIPRP	-0.154
RRIRARPPRLPRPRPRPIHSPRP	-0.184
RRIRWRPPRLPRPRPRPAELPRP	-0.0722
RRIRTRPPRLPRPRPRPEIHPRP	-0.0341
RRIRTRPPRLPRPRPRPYVWPRP	-0.131
RRIRSRPPRLPRPRPRPANLPRP	-0.0937
RRIRERPPRLPRPRPRPWSHPRP	-0.168
RRIRVRPPRLPRPRPRPDCRPRP	-0.0921
RRIRFRPPRLPRPRPRPPFVPRP	-0.0145
RRIRDRPPRLPRPRPRPFWWPRP	0.641
RRIRPRPPRLPRPRPRPNHMPRP	-0.319
RRIRPRPPRLPRPRPRPIPEPRP	1.27
RRIRPRPPRLPRPRPRPNKVPRP	-0.1
RRIRFRPPRLPRPRPRPMEGPRP	-0.0345
RRIRERPPRLPRPRPRPKTHPRP	-0.392
RRIRVRPPRLPRPRPRPTQSPRP	0.332
RRIRCRPPRLPRPRPRPHDAPRP	-0.336
RRIRNRPPRLPRPRPRPLWHPRP	-0.185
RRIRGRPPRLPRPRPRPLSEPRP	0.52
RRIRPRPPRLPRPRPRPGEYPRP	-0.207
RRIRCRPPRLPRPRPRPRADPRP	0.454

Sequence	shrunken log2 fold change
RRIRIRPPRLPRPRPRPKCHPRP	-0.199
RRIRTRPPRLPRPRPRPAWGPRP	0.142
RRIRGRPPRLPRPRPRPHWPPRP	2.63
RRIRYRPPRLPRPRPRPWLFPRP	0.0905
RRIRCRPPRLPRPRPRPVKRPRP	0.0344
RRIRRRPPRLPRPRPRPRGIPRP	0.169
RRIRQRPPRLPRPRPRPNAEPRP	0.053
RRIRHRPPRLPRPRPRPRALPRP	0.152
RRIRMRPPRLPRPRPRPTMAPRP	1.03
RRIRFRPPRLPRPRPRPESHPRP	-0.154
RRIRPRPPRLPRPRPRPEVKPRP	-0.00169
RRIRIRPPRLPRPRPRPDYAPRP	-0.154
RRIRNRPPRLPRPRPRPRGLPRP	0.342
RRIRTRPPRLPRPRPRPYEEPRP	-0.573
RRIRIRPPRLPRPRPRPKRWPRP	-0.0451
RRIRDRPPRLPRPRPRPKENPRP	0.0579
RRIRQRPPRLPRPRPRPDRMPRP	-0.0981
RRIRCRPPRLPRPRPRPHSTPRP	-0.698
RRIRPRPPRLPRPRPRPKETPRP	0.0101
RRIRNRPPRLPRPRPRPQILPRP	-0.265
RRIRPRPPRLPRPRPRPGNNPRP	-0.103
RRIRIRPPRLPRPRPRPCHWPRP	-0.0328
RRIRERPPRLPRPRPRPVDFPRP	-0.0586
RRIRARPPRLPRPRPRPESCPRP	0.869
RRIRHRPPRLPRPRPRPVGLPRP	0.119

Sequence	shrunken log2 fold change
RRIRARPPRLPRPRPRPHGKPRP	0.175
RRIRDRPPRLPRPRPRPWPTPRP	0.104
RRIRDRPPRLPRPRPRPHVQPRP	-0.0912
RRIRARPPRLPRPRPRPALKPRP	0.825
RRIRHRPPRLPRPRPRPWFGPRP	-0.0191
RRIRWRPPRLPRPRPRPMFQPRP	-0.241
RRIRIRPPRLPRPRPRPSAAPRP	0.0317
RRIRDRPPRLPRPRPRPAESPRP	-0.0371
RRIRWRPPRLPRPRPRPVNGPRP	-0.295
RRIRTRPPRLPRPRPRPTMKPRP	-0.334
RRIRRRPPRLPRPRPRPPLEPRP	0.739
RRIRKRPPRLPRPRPRPYQQPRP	-0.00547
RRIRYRPPRLPRPRPRPAIHPRP	-0.406
RRIRQRPPRLPRPRPRPAVDPRP	0.963
RRIRMRPPRLPRPRPRPRIGPRP	0.396
RRIRLRPPRLPRPRPRPCDKPRP	-0.304
RRIRQRPPRLPRPRPRPISQPRP	0.0474
RRIRIRPPRLPRPRPRPFRWPRP	-0.00968
RRIRGRPPRLPRPRPRPRGSPRP	0.832
RRIRQRPPRLPRPRPRPQNMPRP	-0.506
RRIRRRPPRLPRPRPRPWTNPRP	0.0119
RRIRLRPPRLPRPRPRPMVIPRP	0.036
RRIRHRPPRLPRPRPRPDRLPRP	-0.0627
RRIRFRPPRLPRPRPRPPNAPRP	0.353
RRIRCRPPRLPRPRPRPTRNPRP	0.444
